Assay results from the supplement of paper PMC9233669.
This sample holds only a part of the variants without activity.

Assays:
[1] = test system: biotinyl-Met-oxazolone; experiment: self-aminoacylation, catalytic enhancement (BMO) (fold over background); higher = more active; k-Seq, kA / k0A0; sequences stand for … in GGGAAUGGAUCCACAUCUACGAAUUC…UUCACUGCAGACUUGACGAAGCUG
Summary of the method: (§1)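 Mutagenized RNA pools with a 21-nt variable region (0.43 μM) were reacted with each biotinyl-aminoacyl-oxazolone at 2–1250 μM for 90 minutes at room temperature, in 50 μL HEPES/NaCl/KCl/MgCl2/CaCl2 buffer containing 5% acetonitrile at pH 6.9–7.0. RNA captured on streptavidin was quantified by triplicate qPCR and by Illumina sequencing. The fraction reacted for each sequence was fit to a pseudo-first-order model with bootstrapping, and catalytic enhancement is the median kA divided by the uncatalyzed rate, taken as the low-activity peak of a bimodal Gaussian fit.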

[2] = test system: biotinyl-Trp-oxazolone; experiment: self-aminoacylation, catalytic enhancement (BWO) (fold over background); higher = more active; k-Seq, kA / k0A0; sequences stand for … in GGGAAUGGAUCCACAUCUACGAAUUC…UUCACUGCAGACUUGACGAAGCUG
Summary of the method: as §1

[3] = test system: biotinyl-Phe-oxazolone; experiment: self-aminoacylation, catalytic enhancement (BFO) (fold over background); higher = more active; k-Seq, kA / k0A0; sequences stand for … in GGGAAUGGAUCCACAUCUACGAAUUC…UUCACUGCAGACUUGACGAAGCUG
Summary of the method: as §1

[4] = test system: biotinyl-Val-oxazolone; experiment: self-aminoacylation, catalytic enhancement (BVO) (fold over background); higher = more active; k-Seq, kA / k0A0; sequences stand for … in GGGAAUGGAUCCACAUCUACGAAUUC…UUCACUGCAGACUUGACGAAGCUG
Summary of the method: as §1

[5] = test system: biotinyl-Leu-oxazolone; experiment: self-aminoacylation, catalytic enhancement (BLO) (fold over background); higher = more active; k-Seq, kA / k0A0; sequences stand for … in GGGAAUGGAUCCACAUCUACGAAUUC…UUCACUGCAGACUUGACGAAGCUG
Summary of the method: as §1

[6] = test system: biotinyl-Ile-oxazolone; experiment: self-aminoacylation, catalytic enhancement (BIO) (fold over background); higher = more active; k-Seq, kA / k0A0; sequences stand for … in GGGAAUGGAUCCACAUCUACGAAUUC…UUCACUGCAGACUUGACGAAGCUG
Summary of the method: as §1

## CCACCCUUGAAGCAAUCGGUC [Fam1B.1 aminoacylation ribozyme variant]
[1]
  self-aminoacylation: 0.972
[2]
  self-aminoacylation: 1.34
[3]
  self-aminoacylation: 0.764
[4]
  self-aminoacylation: 1.74
[5]
  self-aminoacylation: 1.12
[6]
  self-aminoacylation: 1

## AUUACACUGGUCAUCGAGGGA [Fam2.1 aminoacylation ribozyme variant]
[1]
  self-aminoacylation: 1.26
[2]
  self-aminoacylation: 2.72
[3]
  self-aminoacylation: 0.709
[4]
  self-aminoacylation: 1.37
[5]
  self-aminoacylation: 1.4
[6]
  self-aminoacylation: 1.64

## CCACAUUUCAAGUAAUCGGUC [Fam1B.1 aminoacylation ribozyme variant]
[1]
  self-aminoacylation: 1.03
[2]
  self-aminoacylation: 1.77
[3]
  self-aminoacylation: 2.1
[4]
  self-aminoacylation: 1.05
[5]
  self-aminoacylation: 1.14
[6]
  self-aminoacylation: 1.21

## CUACUGCAAAAAAUCGGUCUG [Fam1A.1 aminoacylation ribozyme variant]
[1]
  self-aminoacylation: 0.686
[2]
  self-aminoacylation: 0.892
[3]
  self-aminoacylation: 0.868
[4]
  self-aminoacylation: 0.703
[5]
  self-aminoacylation: 0.638
[6]
  self-aminoacylation: 0.788

## AUUCACCCCGGUCAUCGGGUG [Fam2.2 aminoacylation ribozyme variant]
[1]
  self-aminoacylation: 7.52
[2]
  self-aminoacylation: 5.88
[3]
  self-aminoacylation: 64.7
[4]
  self-aminoacylation: 3.99
[5]
  self-aminoacylation: 8.33
[6]
  self-aminoacylation: 4.14

## CUUCACCUAGGUCAUCAGGUG [Fam2.2 aminoacylation ribozyme variant]
[1]
  self-aminoacylation: 1.62
[2]
  self-aminoacylation: 1.31
[3]
  self-aminoacylation: 1.47
[4]
  self-aminoacylation: 1.7
[5]
  self-aminoacylation: 1.84
[6]
  self-aminoacylation: 1.46

## GUUACGCUGGUCAUCGAGUGA [Fam2.1 aminoacylation ribozyme variant]
[1]
  self-aminoacylation: 7.2
[2]
  self-aminoacylation: 10.6
[3]
  self-aminoacylation: 59.2
[4]
  self-aminoacylation: 4.86
[5]
  self-aminoacylation: 8.34
[6]
  self-aminoacylation: 5.57

## CCACACUUCAAGCAAUCCGCC [Fam1B.1 aminoacylation ribozyme variant]
[1]
  self-aminoacylation: 1.16
[2]
  self-aminoacylation: 0.899
[3]
  self-aminoacylation: 0.939
[4]
  self-aminoacylation: 1.64
[5]
  self-aminoacylation: 1.02
[6]
  self-aminoacylation: 0.873

## UCACACUUCAACCAAUCGGUC [Fam1B.1 aminoacylation ribozyme variant]
[1]
  self-aminoacylation: 1.71
[2]
  self-aminoacylation: 37.1
[3]
  self-aminoacylation: 54.2
[4]
  self-aminoacylation: 1.75
[5]
  self-aminoacylation: 2.44
[6]
  self-aminoacylation: 1.45

## UUUACGCUGGUCAUCGAGUGA [Fam2.1 aminoacylation ribozyme variant]
[1]
  self-aminoacylation: 4.46
[2]
  self-aminoacylation: 6.37
[3]
  self-aminoacylation: 10.2
[4]
  self-aminoacylation: 4.07
[5]
  self-aminoacylation: 4.78
[6]
  self-aminoacylation: 3.56

## AUUCUCCUAGGUCAUCGAGUG [Fam2.2 aminoacylation ribozyme variant]
[1]
  self-aminoacylation: 5.07
[2]
  self-aminoacylation: 3.73
[3]
  self-aminoacylation: 6.65
[4]
  self-aminoacylation: 3.77
[5]
  self-aminoacylation: 6.3
[6]
  self-aminoacylation: 3.62

## AAGUUUGCUAAUAGUUGCAUG [Fam3.1 aminoacylation ribozyme variant]
[1]
  self-aminoacylation: 0.831
[2]
  self-aminoacylation: 0.685
[3]
  self-aminoacylation: 1.14
[4]
  self-aminoacylation: 0.934
[5]
  self-aminoacylation: 1.14
[6]
  self-aminoacylation: 0.96

## ACUACCCUGGACAUCGAGUGA [Fam2.1 aminoacylation ribozyme variant]
[1]
  self-aminoacylation: 7.03
[2]
  self-aminoacylation: 7.37
[3]
  self-aminoacylation: 20.6
[4]
  self-aminoacylation: 2.92
[5]
  self-aminoacylation: 6.83
[6]
  self-aminoacylation: 2.55
